Experimental data as given in the supplement of paper PMC9732359.
± gives the uncertainty stated by the source.

Assay: protein stability index of a GFP-peptide fusion (yeast GPS) (PSI 1-4); higher = more stable; sorted into four equal gates, so the index is relative within each strain
In short: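 Each library plasmid carries Cherry plus GFP with a tiled 17-residue yeast protein peptide fused downstream, and the pooled library was carried in yeast. Mid-log cultures in leucine-free medium were sorted into four equal gates by GFP/Cherry ratio. Reads from Illumina sequencing of PCR-amplified plasmids from each gate were assigned to strains by barcodes. Per peptide, the protein stability index was computed as the summed products of gate read frequency and gate number.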

Row | Sequence | protein stability index (doa10∆) | protein stability index (pdr5∆) | protein stability index (ubr1∆) | protein stability index (san1∆)
1 | DSDKGSKLNELKKELKL [SMC2] | 3.56 ± 0.18 | 3.02 ± 0.23 | 3.33 ± 0.17 | 
2 | DKFFNEVNKSELYLTAE [SIR3] | 3.43 ± 0.13 | 3.55 ± 0.13 | 3.58 ± 0.12 | 3.23 ± 0.085
3 | NAIIEANLGKYGILSID [RPL7A] | 2.87 ± 0.17 | 2.97 ± 0.14 | 2.89 ± 0.15 | 2.84 ± 0.094
4 | RESLIMLLEEQLEYKRG [MED7] | 2.51 ± 0.08 | 2.77 ± 0.071 | 2.75 ± 0.057 | 2.42 ± 0.091
5 | LKYYQDLKNTRMKSITS [SNF5] | 1.45 ± 0.23 | 2.24 ± 0.19 | 2.98 ± 0.22 | 2.4 ± 0.15
6 | NVVPYHRNTSDYYYEDA [SWI1] | 2.85 ± 0.085 | 3.13 ± 0.075 | 3.08 ± 0.055 | 3.03 ± 0.08
7 | EKVFNAYPAAREQFLNA [FAS1] | 3.16 ± 0.084 | 3.19 ± 0.094 | 3.22 ± 0.053 | 3.1 ± 0.077
8 | FKLGKFNYVAVGDVSNL [QCR2] | 3.28 ± 0.1 | 2.01 ± 0.1 | 2.83 ± 0.068 | 2.38 ± 0.14
9 | KYCEIMGDNSQLDFTEF [SNF2] | 3.16 ± 0.085 | 3.2 ± 0.11 | 3.29 ± 0.073 | 2.87 ± 0.1
10 | VVDPKTSIEKSSEILSY [YML103C/NUP188] | 1.49 ± 0.087 | 1.43 ± 0.13 | 1.12 ± 0.063 | 1.16 ± 0.12
11 | SSLFNNSTNSNTTKPAF [YJL041W/NSP1] | 2.45 ± 0.054 | 2.15 ± 0.049 | 2.06 ± 0.037 | 2.61 ± 0.042
12 | DVDMEDRNLTEFDSTDT [RRI1] | 2.93 ± 0.12 | 3.09 ± 0.12 | 3.01 ± 0.055 | 2.71 ± 0.13
13 | PYAIVKGKARLGTLVNQ [RPL8A] | 2.54 ± 0.1 | 2.81 ± 0.093 | 2.73 ± 0.073 | 2.74 ± 0.16
14 | GARPGRVARRNAARKAE [RPS9A] | 3.3 ± 0.13 | 3.45 ± 0.17 | 3 ± 0.098 | 
15 | SDDKTRQLSPHTLMSFA [PRE1] | 1.83 ± 0.046 | 2.12 ± 0.05 | 2.18 ± 0.038 | 2.26 ± 0.082
16 | VVLYNYYLGQYYGCLEN [CSN12] | 2.5 ± 0.17 | 2.57 ± 0.15 | 1.97 ± 0.13 | 2.51 ± 0.11
17 | MKEDGLSFVDIVLSKAA [SIR4] | 1.88 ± 0.1 | 2.8 ± 0.07 | 2.22 ± 0.053 | 2.74 ± 0.12
18 | GLSQTEAFGNIKIDAKP [MCD1] | 2.07 ± 0.083 | 2.87 ± 0.15 | 2.48 ± 0.078 | 1.77 ± 0.2
19 | FKIHTAKVKKTGEFDFE [RPT4] | 2.3 ± 0.11 | 3.06 ± 0.12 | 2.81 ± 0.12 | 2.29 ± 0.17
20 | ILDPSTEYCVGDYVAYQ [YMR129W/POM152] | 2.83 ± 0.19 | 3.63 ± 0.18 |  | 2.47 ± 0.21
21 | QDIKKAKRVENFNSSAP [DSN1] | 3.31 ± 0.1 | 3.44 ± 0.085 | 3.42 ± 0.06 | 3.02 ± 0.16
22 | NRTKSTTIKNIDILNRT [SMC4] | 2.15 ± 0.046 | 2.55 ± 0.043 | 2.53 ± 0.041 | 2.38 ± 0.062
23 | KIEFPLPSEDSRAQILQ [RPT5] | 3.39 ± 0.15 | 3.18 ± 0.13 | 3.51 ± 0.11 | 3.11 ± 0.09
24 | IRLSKILEDDFAVALKN [CDC53] | 3.19 ± 0.15 | 3.16 ± 0.14 | 3.04 ± 0.08 | 3.04 ± 0.072
25 | IIANINSFTKGNVFSPI [SNU114] | 2.18 ± 0.085 | 2.54 ± 0.067 | 2.21 ± 0.039 | 2.43 ± 0.05
26 | ELISYRNESLKNNSSIR [SRB8] | 3.15 ± 0.068 | 3.05 ± 0.11 | 3.05 ± 0.049 | 3.05 ± 0.08
